Patent US20180148504A1

Columns and labels:
[1] = molecular target: recombinant purified FRα (ECL assay calibrator) (human) (UniProt P15328); test: ECL sandwich competition; competitors 9F3 capture / 24F12 detection; FRα standard STD01; MORAb-003 50 µg/mL
[2] = molecular target: recombinant purified FRα (ECL assay calibrator) (human) (UniProt P15328); test: ECL sandwich competition; competitors 9F3 capture / 24F12 detection; FRα standard STD04; MORAb-003 10 µg/mL
[3] = molecular target: recombinant purified FRα (ECL assay calibrator) (human) (UniProt P15328); test: ECL sandwich competition; competitors 9F3 capture / 24F12 detection; FRα standard STD06; MORAb-003 10 µg/mL
[4] = molecular target: recombinant purified FRα (ECL assay calibrator) (human) (UniProt P15328); test: ECL sandwich competition; competitors 9F3 capture / 24F12 detection; FRα standard STD08; MORAb-003 50 µg/mL
[5] = molecular target: endogenous folate receptor alpha in human serum and plasma samples (human) (UniProt P15328); test: ECL sandwich competition; competitors 24H8.D3 capture / 19D4.B7 detection; serum samples; MORAb-003 100 µg/mL
Chain of endogenous folate receptor alpha in human serum and plasma samples (human) (P15328 25-234 limits assumed, form in doubt): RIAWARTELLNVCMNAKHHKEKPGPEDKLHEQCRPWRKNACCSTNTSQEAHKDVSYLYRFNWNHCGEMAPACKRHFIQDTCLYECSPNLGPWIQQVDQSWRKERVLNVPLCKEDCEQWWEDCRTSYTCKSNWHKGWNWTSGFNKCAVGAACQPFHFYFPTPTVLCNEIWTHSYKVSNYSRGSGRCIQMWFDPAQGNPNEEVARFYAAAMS

[6] = molecular target: endogenous folate receptor alpha in human serum and plasma samples (human) (UniProt P15328); test: ECL sandwich capture 19D4.B7 / detection 19D2.G9; serum incubated overnight with 10 µg/mL MORAb-003
[7] = molecular target: endogenous folate receptor alpha in human serum and plasma samples (human) (UniProt P15328); test: ECL sandwich capture 24H8.D3 / detection 19D4.B7; serum incubated overnight with 10 µg/mL MORAb-003
[8] = molecular target: endogenous folate receptor alpha in human serum and plasma samples (human) (UniProt P15328); test: ECL sandwich capture 26A9.C4 / detection 19D4.B7; serum incubated overnight with 10 µg/mL MORAb-003
[9] = molecular target: endogenous folate receptor alpha in human serum and plasma samples (human) (UniProt P15328); test: ECL sandwich capture 28H12.G9 / detection 19D4.B7; serum incubated overnight with 10 µg/mL MORAb-003
[10] = molecular target: recombinant purified FRα (ECL assay calibrator) (human) (UniProt P15328); test: ECL sandwich capture 24H8.F3 / detection 6A2.G7; calibrator incubated overnight with 10 µg/mL MORAb-003
[11] = molecular target: endogenous folate receptor alpha in human serum and plasma samples (human) (UniProt P15328); test: ECL sandwich capture 1D2.G8.G10 / detection 19D4.B7; serum incubated overnight with 10 µg/mL MORAb-003
[12] = molecular target: recombinant purified FRα (ECL assay calibrator) (human) (UniProt P15328); test: ECL sandwich capture 26A9.C4 / detection 19D4.B7; calibrator incubated overnight with 10 µg/mL MORAb-003
[13] = molecular target: recombinant purified FRα (ECL assay calibrator) (human) (UniProt P15328); test: ECL sandwich capture 2F11.F8 / detection 19D4.B7; calibrator incubated overnight with 10 µg/mL MORAb-003
[14] = molecular target: recombinant purified FRα (ECL assay calibrator) (human) (UniProt P15328); test: ECL sandwich capture 6A2.G7 / detection 1C6.E12.G8; calibrator incubated overnight with 10 µg/mL MORAb-003
[15] = molecular target: endogenous folate receptor alpha in human serum and plasma samples (human) (UniProt P15328); test: ECL sandwich capture 24H8.F3 / detection 30G6.G6.G4.E9; serum incubated overnight with 10 µg/mL MORAb-003
[16] = molecular target: recombinant purified FRα (ECL assay calibrator) (human) (UniProt P15328); test: ECL sandwich capture 19D4.B7 / detection 1C6.E12.G8; calibrator incubated overnight with 10 µg/mL MORAb-003
[17] = molecular target: recombinant purified FRα (ECL assay calibrator) (human) (UniProt P15328); test: ECL sandwich capture 19D4.B7 / detection 1D2.G8.G10; calibrator incubated overnight with 10 µg/mL MORAb-003
[18] = molecular target: recombinant purified FRα (ECL assay calibrator) (human) (UniProt P15328); test: ECL sandwich capture 1A8.G11.E7 / detection 19D4.B7; calibrator incubated overnight with 10 µg/mL MORAb-003
[19] = molecular target: recombinant purified FRα (ECL assay calibrator) (human) (UniProt P15328); test: ECL sandwich capture 30G6.G6.G4.E9 / detection 19D2.G9; calibrator incubated overnight with 10 µg/mL MORAb-003
[20] = molecular target: recombinant purified FRα (ECL assay calibrator) (human) (UniProt P15328); test: ECL sandwich capture 30G6.G6.G4.E9 / detection 26A9.C4; calibrator incubated overnight with 10 µg/mL MORAb-003
[21] = molecular target: recombinant purified FRα (ECL assay calibrator) (human) (UniProt P15328); test: ECL sandwich capture 1C6.E12.G8 / detection 30G6.G6.G4.E9; calibrator incubated overnight with 10 µg/mL MORAb-003
[22] = molecular target: recombinant purified FRα (ECL assay calibrator) (human) (UniProt P15328); test: ECL sandwich capture 30G6.G6.G4.E9 / detection 1D2.G8.G10; calibrator incubated overnight with 10 µg/mL MORAb-003
[23] = molecular target: recombinant purified FRα (ECL assay calibrator) (human) (UniProt P15328); test: ECL sandwich capture 1A8.G11.E7 / detection 30G6.G6.G4.E9; calibrator incubated overnight with 10 µg/mL MORAb-003
[24] = molecular target: endogenous folate receptor alpha in human serum and plasma samples (human) (UniProt P15328); test: ECL sandwich, positive control +CONT: capture 26B3.F2 (f1) / detection 19D4.B7; serum incubated overnight with 10 µg/mL MORAb-003

Chain of recombinant purified FRα (ECL assay calibrator) (human) (P15328 25-234 limits assumed): as the sequence (P15328 25-234 limits assumed, form in doubt) above

B1: farletuzumab (MORAb-003) (antibody, part only; not given: Constant regions, V domains shown, not shown: another chain or arm of the molecule)
VH: EVQLVESGGGVVQPGRSLRLSCSASGFTFSGYGLSWVRQAPGKGLEWVAMISSGGSYTYYADSVKGRFAISRDNAKNTLFLQMDSLRPEDTGVYFCARHGDDPAWFAYWGQGTPVTVSS
VL: DIQLTQSPSSLSASVGDRVTITCSVSSSISSNNLHWYQQKPGKAPKPWIYGTSNLASGVPSRFSGSGSGTDYTFTISSLQPEDIATYYCQQWSSYPYMYTFGQGTKVEIK
- % of signal without MORAb-003 (MORAb-003 interference) [1]: 54%
- % of signal without MORAb-003 (MORAb-003 interference) [2]: 73%
- % of signal without MORAb-003 (MORAb-003 interference) [3]: 103%
- % of signal without MORAb-003 (MORAb-003 interference) [4]: 115%
- percent inhibition (median, serum) [5]: 3%
- Drug suppression of serum [6]: -3.38%
- Drug suppression of serum [7]: -2.8%
- Drug suppression of serum [8]: -59.7%
- Drug suppression of serum [9]: -73.2%
- Drug Suppression of Cal Signal at 500 pg/mL [10]: 7%
- Drug suppression of serum [11]: 84.6%
- Drug Suppression of Cal Signal at 500 pg/mL [12]: 72%
- Drug Suppression of Cal Signal at 500 pg/mL [13]: -2%
- Drug Suppression of Cal Signal at 500 pg/mL [14]: 6%
- Drug suppression of serum [15]: -0.93%
- Drug Suppression of Cal Signal at 500 pg/mL [16]: -18%
- Drug Suppression of Cal Signal at 500 pg/mL [17]: 2%
- Drug Suppression of Cal Signal at 500 pg/mL [18]: -16%
- Drug Suppression of Cal Signal at 500 pg/mL [19]: -5%
- Drug Suppression of Cal Signal at 500 pg/mL [20]: -11%
- Drug Suppression of Cal Signal at 500 pg/mL [21]: -9%
- Drug Suppression of Cal Signal at 500 pg/mL [22]: 8%
- Drug Suppression of Cal Signal at 500 pg/mL [23]: -6%
- Drug suppression of serum [24]: 12.1%
